# Measured values taken from patent US20140087995A1 (published 2014).
# Numbered stars: 1 amine (or outer) side, 2 acyl side, 3 side chain; on linkers, the order of the positions; unused ones are H or OH. Bridge positions count the residues as written; N and C are the ends. Side chains are listed from the residue outwards. Ends that are not written are not given here. * marks the point of attachment. C20 diacid = O=C(O)CCCCCCCCCCCCCCCCCCC(=O)*; γGlu = O=C(O)[C@H](CCC(=O)[*:2])N[*:1]; AEEA = NCCOCCOCC(=O)O
# T1: human calcitonin receptor (human, UniProt P30988 25-474)
# T1 construct: whole, on cells; Used as cell membranes; also called hCTR; hCT
# T1 sequence (looked up): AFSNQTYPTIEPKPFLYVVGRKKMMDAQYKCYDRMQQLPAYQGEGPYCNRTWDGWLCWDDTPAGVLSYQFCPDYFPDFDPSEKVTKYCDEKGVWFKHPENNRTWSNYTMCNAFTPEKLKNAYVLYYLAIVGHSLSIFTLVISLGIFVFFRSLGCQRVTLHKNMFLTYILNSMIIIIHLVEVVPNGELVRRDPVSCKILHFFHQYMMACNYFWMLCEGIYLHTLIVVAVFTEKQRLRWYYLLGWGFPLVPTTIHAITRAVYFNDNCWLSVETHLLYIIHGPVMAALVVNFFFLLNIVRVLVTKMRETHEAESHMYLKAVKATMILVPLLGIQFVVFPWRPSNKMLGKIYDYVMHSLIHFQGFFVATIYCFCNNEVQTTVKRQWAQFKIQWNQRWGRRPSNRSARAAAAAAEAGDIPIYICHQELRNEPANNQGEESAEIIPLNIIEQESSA
# B1: N^ε1-[2-[2-[2-[[(4S)-4-carboxy-4-(19-carboxynonadecanoylamino)butanoyl]amino]ethoxy]ethoxy]acetyl]-[Gly14,Arg17,Pro21,Pro27,Pro31]-h-amylin (peptide)
# peptide: K([AEEA-γGlu-C20 diacid])CNTATCATQRLAGFLRHSSPNFGAIPSSTPVGSNTY-NH2
# modifications: disulfide 2-7; N-terminus assumed
# SMILES: CC[C@H](C)[C@H](NC(=O)[C@H](C)NC(=O)CNC(=O)[C@H](Cc1ccccc1)NC(=O)[C@H](CC(N)=O)NC(=O)[C@@H]1CCCN1C(=O)[C@H](CO)NC(=O)[C@H](CO)NC(=O)[C@H](Cc1c[nH]cn1)NC(=O)[C@H](CCCNC(=N)N)NC(=O)[C@H](CC(C)C)NC(=O)[C@H](Cc1ccccc1)NC(=O)CNC(=O)[C@H](C)NC(=O)[C@H](CC(C)C)NC(=O)[C@H](CCCNC(=N)N)NC(=O)[C@H](CCC(N)=O)NC(=O)[C@@H](NC(=O)[C@H](C)NC(=O)[C@@H]1CSSC[C@H](NC(=O)[C@@H](N)CCCCNC(=O)COCCOCCNC(=O)CC[C@H](NC(=O)CCCCCCCCCCCCCCCCCCC(=O)O)C(=O)O)C(=O)N[C@@H](CC(N)=O)C(=O)N[C@@H]([C@@H](C)O)C(=O)N[C@@H](C)C(=O)N[C@@H]([C@@H](C)O)C(=O)N1)[C@@H](C)O)C(=O)N1CCC[C@H]1C(=O)N[C@@H](CO)C(=O)N[C@@H](CO)C(=O)N[C@H](C(=O)N1CCC[C@H]1C(=O)N[C@H](C(=O)NCC(=O)N[C@@H](CO)C(=O)N[C@@H](CC(N)=O)C(=O)N[C@H](C(=O)N[C@@H](Cc1ccc(O)cc1)C(N)=O)[C@@H](C)O)C(C)C)[C@@H](C)O
# notes: also called compound 71
# B2: N^ε1-[2-[2-[2-[[(4S)-4-carboxy-4-(19-carboxynonadecanoylamino)butanoyl]amino]ethoxy]ethoxy]acetyl]-[His14,Arg17,Pro21,Pro27,Arg34]-h-amylin (peptide)
# peptide: K([AEEA-γGlu-C20 diacid])CNTATCATQRLAHFLRHSSPNFGAIPSSTNVGRNTY-NH2
# modifications: disulfide 2-7; N-terminus assumed
# SMILES: CC[C@H](C)[C@H](NC(=O)[C@H](C)NC(=O)CNC(=O)[C@H](Cc1ccccc1)NC(=O)[C@H](CC(N)=O)NC(=O)[C@@H]1CCCN1C(=O)[C@H](CO)NC(=O)[C@H](CO)NC(=O)[C@H](Cc1c[nH]cn1)NC(=O)[C@H](CCCNC(=N)N)NC(=O)[C@H](CC(C)C)NC(=O)[C@H](Cc1ccccc1)NC(=O)[C@H](Cc1c[nH]cn1)NC(=O)[C@H](C)NC(=O)[C@H](CC(C)C)NC(=O)[C@H](CCCNC(=N)N)NC(=O)[C@H](CCC(N)=O)NC(=O)[C@@H](NC(=O)[C@H](C)NC(=O)[C@@H]1CSSC[C@H](NC(=O)[C@@H](N)CCCCNC(=O)COCCOCCNC(=O)CC[C@H](NC(=O)CCCCCCCCCCCCCCCCCCC(=O)O)C(=O)O)C(=O)N[C@@H](CC(N)=O)C(=O)N[C@@H]([C@@H](C)O)C(=O)N[C@@H](C)C(=O)N[C@@H]([C@@H](C)O)C(=O)N1)[C@@H](C)O)C(=O)N1CCC[C@H]1C(=O)N[C@@H](CO)C(=O)N[C@@H](CO)C(=O)N[C@H](C(=O)N[C@@H](CC(N)=O)C(=O)N[C@H](C(=O)NCC(=O)N[C@@H](CCCNC(=N)N)C(=O)N[C@@H](CC(N)=O)C(=O)N[C@H](C(=O)N[C@@H](Cc1ccc(O)cc1)C(N)=O)[C@@H](C)O)C(C)C)[C@@H](C)O
# notes: also called compound 84
# B3: N^ε1-[2-[2-[2-[[(4S)-4-carboxy-4-(19-carboxynonadecanoylamino)butanoyl]amino]ethoxy]ethoxy]acetyl]-[His14,Arg17,Pro21,Pro27,Pro34]-h-amylin (peptide)
# peptide: K([AEEA-γGlu-C20 diacid])CNTATCATQRLAHFLRHSSPNFGAIPSSTNVGPNTY-NH2
# modifications: disulfide 2-7; N-terminus assumed
# SMILES: CC[C@H](C)[C@H](NC(=O)[C@H](C)NC(=O)CNC(=O)[C@H](Cc1ccccc1)NC(=O)[C@H](CC(N)=O)NC(=O)[C@@H]1CCCN1C(=O)[C@H](CO)NC(=O)[C@H](CO)NC(=O)[C@H](Cc1c[nH]cn1)NC(=O)[C@H](CCCNC(=N)N)NC(=O)[C@H](CC(C)C)NC(=O)[C@H](Cc1ccccc1)NC(=O)[C@H](Cc1c[nH]cn1)NC(=O)[C@H](C)NC(=O)[C@H](CC(C)C)NC(=O)[C@H](CCCNC(=N)N)NC(=O)[C@H](CCC(N)=O)NC(=O)[C@@H](NC(=O)[C@H](C)NC(=O)[C@@H]1CSSC[C@H](NC(=O)[C@@H](N)CCCCNC(=O)COCCOCCNC(=O)CC[C@H](NC(=O)CCCCCCCCCCCCCCCCCCC(=O)O)C(=O)O)C(=O)N[C@@H](CC(N)=O)C(=O)N[C@@H]([C@@H](C)O)C(=O)N[C@@H](C)C(=O)N[C@@H]([C@@H](C)O)C(=O)N1)[C@@H](C)O)C(=O)N1CCC[C@H]1C(=O)N[C@@H](CO)C(=O)N[C@@H](CO)C(=O)N[C@H](C(=O)N[C@@H](CC(N)=O)C(=O)N[C@H](C(=O)NCC(=O)N1CCC[C@H]1C(=O)N[C@@H](CC(N)=O)C(=O)N[C@H](C(=O)N[C@@H](Cc1ccc(O)cc1)C(N)=O)[C@@H](C)O)C(C)C)[C@@H](C)O
# notes: also called compound 68
# B4: N^ε1-[2-[2-[2-[[(4S)-4-carboxy-4-(19-carboxynonadecanoylamino)butanoyl]amino]ethoxy]ethoxy]acetyl]-[His14,Arg17,Pro21,Pro27,His34]-h-amylin (peptide)
# peptide: K([AEEA-γGlu-C20 diacid])CNTATCATQRLAHFLRHSSPNFGAIPSSTNVGHNTY-NH2
# modifications: disulfide 2-7; N-terminus assumed
# SMILES: CC[C@H](C)[C@H](NC(=O)[C@H](C)NC(=O)CNC(=O)[C@H](Cc1ccccc1)NC(=O)[C@H](CC(N)=O)NC(=O)[C@@H]1CCCN1C(=O)[C@H](CO)NC(=O)[C@H](CO)NC(=O)[C@H](Cc1c[nH]cn1)NC(=O)[C@H](CCCNC(=N)N)NC(=O)[C@H](CC(C)C)NC(=O)[C@H](Cc1ccccc1)NC(=O)[C@H](Cc1c[nH]cn1)NC(=O)[C@H](C)NC(=O)[C@H](CC(C)C)NC(=O)[C@H](CCCNC(=N)N)NC(=O)[C@H](CCC(N)=O)NC(=O)[C@@H](NC(=O)[C@H](C)NC(=O)[C@@H]1CSSC[C@H](NC(=O)[C@@H](N)CCCCNC(=O)COCCOCCNC(=O)CC[C@H](NC(=O)CCCCCCCCCCCCCCCCCCC(=O)O)C(=O)O)C(=O)N[C@@H](CC(N)=O)C(=O)N[C@@H]([C@@H](C)O)C(=O)N[C@@H](C)C(=O)N[C@@H]([C@@H](C)O)C(=O)N1)[C@@H](C)O)C(=O)N1CCC[C@H]1C(=O)N[C@@H](CO)C(=O)N[C@@H](CO)C(=O)N[C@H](C(=O)N[C@@H](CC(N)=O)C(=O)N[C@H](C(=O)NCC(=O)N[C@@H](Cc1c[nH]cn1)C(=O)N[C@@H](CC(N)=O)C(=O)N[C@H](C(=O)N[C@@H](Cc1ccc(O)cc1)C(N)=O)[C@@H](C)O)C(C)C)[C@@H](C)O
# notes: also called compound 80
# Target: T1, human calcitonin receptor
# Test: ratio of hCTR IC50 to hAmylin-R IC50 (reference: human amylin receptor)
# Method: The resulting pellet was resuspended, homogenized and centrifuged (20.000 rpm, 15 min) in a buffer containing 20 mM Na-HEPES and 0.1 mM EDTA (pH 7.4, buffer 2). The resulting pellet was resuspended in buffer 2 and protein concentration was measured (BCA protein Assay, Pierce). The homogenate was kept cold during the whole procedure. The membranes were kept at −80° C. until use. The assay was performed in a 384 well Optiplate (PerkinElmer) in a total volume of 40 ul. Membranes were mixed with SPA beads. Final concentration of membranes 35 ng/μL final and SPA beads was 0.05 mg/well. Test-compounds were dissolved in DMSO and further diluted in assay buffer (50 mM Hepes, pH 7.4, 1 mM CaCl2, 5 mM MgCl₂, 0.1% OA and 0.02% Tween20). […] The final mixture was incubated with shaking at 400 rpm for 120 min at 25° C. prior to centrifugation (1500 rpm, 10 min). Samples were analyzed on TopCounter™ (Packard). The IC₅₀ was calculated using (one site binding competition analysis) GraphPad Prism5 as a measure of receptor affinity.
# Membranes were prepared in the following way; the cells were rinsed with PBS and incubated with Versene for approximately 5 min before harvesting. The cells were flushed with PBS and the cell-suspension was centrifuged for 5 min at 1000 rpm. Cells were homogenized (Ultrathurrax) in a buffer containing 20 mM Na-HEPES and 10 mM EDTA (pH 7.4) and centrifuged at 20.000 rpm for 15 min. The resulting pellet was resuspended, homogenized and centrifuged (20.000 rpm, 15 min) in a buffer containing 20 mM Na-HEPES and 0.1 mM EDTA (pH 7.4, buffer 2). The resulting pellet was resuspended in buffer 2 and protein concentration was measured (BCA protein Assay, Pierce). The homogenate was kept cold during the whole procedure. The membranes were kept at −80° C. until use. Assay was performed in a 384 well Optiplate (PerkinElmer) in a total volume of 40 ul. Membranes were mixed with SPA beads.
row,Ratio hCT/hAmylin binding,Binder
1,32,B1
2,120,B2
3,64.4,B3
4,68.1,B4

# Target: T1, human calcitonin receptor
# Test: SPA competition on BHK cell membranes, 125I-calcitonin as radioligand (Assay VII)
# Method: Membranes were prepared in the following way; the cells were rinsed with PBS and incubated with Versene for approximately 5 min before harvesting. The cells were flushed with PBS and the cell-suspension was centrifuged for 5 min at 1000 rpm. Cells were homogenized (Ultrathurrax) in a buffer containing 20 mM Na-HEPES and 10 mM EDTA (pH 7.4) and centrifuged at 20.000 rpm for 15 min. The resulting pellet was resuspended, homogenized and centrifuged (20.000 rpm, 15 min) in a buffer containing 20 mM Na-HEPES and 0.1 mM EDTA (pH 7.4, buffer 2). The resulting pellet was resuspended in buffer 2 and protein concentration was measured (BCA protein Assay, Pierce). The homogenate was kept cold during the whole procedure. The membranes were kept at −80° C. until use. Assay was performed in a 384 well Optiplate (PerkinElmer) in a total volume of 40 ul. Membranes were mixed with SPA beads. Final concentration of membranes 35 ng/μL final and Final concentration of SPA beads was 0.05 mg/well. Test-compounds were dissolved in DMSO and further diluted in assay buffer (50 mM Hepes, pH 7.4, 1 mM CaCl2, 5 mM MgCl₂, 0.1% OA and 0.02% Tween20). […] The final mixture was incubated for 120 min with shaking at 400 rpm at 25° C. prior to centrifugation (1500 rpm, 10 min). Samples were analyzed on TopCounter™ (Packard). The […] was calculated using (one site binding competition analysis) GraphPad Prism5 as a measure of receptor affinity.
row,IC50 [nM],Binder
1,1.53,B1
2,88.9,B2
3,5.66,B3
4,19.8,B4
